# What was measured:
# PP1CA-MRAS = PP1CA-MRAS (Homo sapiens, UniProt P62136); test: ITC
# PP1CA-HRAS = PP1CA-HRAS (Homo sapiens, UniProt P62136); test: SPR
# PP1CA-KRAS = PP1CA-KRAS (Homo sapiens, UniProt P62136); test: SPR
# PP1CA-NRAS = PP1CA-NRAS (Homo sapiens, UniProt P62136); test: SPR
binder,measurement,setting,value
"SHOC2 (protein, GMPPNP) MSSSLGKEKDSKEKDPKVPSAKEREKEAKASGGFGKESKEKEPKTKGKDAKDGKKDSSAAQPGVAFSVDNTIKRPNPAPGTRKKSSNAEVIKELNKCREENSMRLDLSKRSIHILPSSIKELTQLTELYLYSNKLQSLPAEVGCLVNLMTLALSENSLTSLPDSLDNLKKLRMLDLRHNKLREIPSVVYRLDSLTTLYLRFNRITTVEKDIKNLSKLSMLSIRENKIKQLPAEIGELCNLITLDVAHNQLEHLPKEIGNCTQITNLDLQHNELLDLPDTIGNLSSLSRLGLRYNRLSAIPRSLAKCSALEELNLENNNISTLPESLLSSLVKLNSLTLARNCFQLYPVGGPSQFSTIYSLNMEHNRINKIPFGIFSRAKVLSKLNMKDNQLTSLPLDFGTWTSMVELNLATNQLTKIPEDVSGLVSLEVLILSNNLLKKLPHGLGNLRKLRELDLEENKLESLPNEIAYLKDLQKLVLTNNQLTTLPRGIGHLTNLTHLGLGENLLTHLPEEIGTLENLEELYLNDNPNLHSLPFELALCSKLSIMSIENCPLSHLPPQIVAGGPSFIIQFLKMQGPYRAMV",Kd,PP1CA-MRAS,~350 nM
same,Kd,PP1CA-HRAS,2000 nM
same,Kd,PP1CA-KRAS,700 nM
same,Kd,PP1CA-NRAS,4000 nM
